# Results as given in PMC3737472.
# Tests used:
# [1] = target: HSV-1 glycoprotein B ectodomain lacking the membrane proximal region, gB730t (residues 31-730) (herpes simplex virus type 1 (HSV-1)) (UniProt P06437); assay: negative stain EM; SEC fractions 19-22 (run without detergent) on carbon-coated grids at 2-20 ug/ml; 0.75% uranyl formate pH 5.5 or methylamine vanadate pH 8.0
# [2] = target: HSV-1 glycoprotein B ectodomain lacking the membrane proximal region, gB730t (residues 31-730) (herpes simplex virus type 1 (HSV-1)) (UniProt P06437); assay: cryo-EM projection images; SEC fraction 22 (run without detergent) embedded in vitreous ice on holey carbon grids
# [3] = target: HSV-1 glycoprotein B ectodomain lacking the membrane proximal region, gB730t (residues 31-730) (herpes simplex virus type 1 (HSV-1)) (UniProt P06437); assay: SEC; Superdex200 column run in 2x PBS; gB773t also run in 2x PBS/0.5% octyl-glucoside after overnight incubation with the detergent
# [4] = target: HSV-1 glycoprotein B ectodomain lacking the membrane proximal region, gB730t (residues 31-730) (herpes simplex virus type 1 (HSV-1)) (UniProt P06437); assay: negative stain EM; SEC fractions 19-22 (run without detergent) on carbon-coated grids at 2-20 ug/ml; 0.75% uranyl formate pH 5.5 or methylamine vanadate pH 8.0; remark: listed apart in the source
# [5] = target: HSV-1 glycoprotein B ectodomain lacking the membrane proximal region, gB730t (residues 31-730) (herpes simplex virus type 1 (HSV-1)) (UniProt P06437); assay: cryo-EM structure; cryo-ET subtomogram averaging of gB730t trimers bound to liposomes (phosphatidylcholine:cholesterol 1.7:1), pH 5.5, protein ca. 1 mg/ml, 1 hr at 37 C; 786 particles, 2.7 nm
# [6] = target: HSV-1 glycoprotein B full-length ectodomain including the membrane proximal region, gB773t (residues 31-773) (herpes simplex virus type 1 (HSV-1)) (UniProt P06437); assay: negative stain EM; SEC fractions 19-22 (run without detergent) on carbon-coated grids at 2-20 ug/ml; 0.75% uranyl formate pH 5.5 or methylamine vanadate pH 8.0
# [7] = target: HSV-1 glycoprotein B full-length ectodomain including the membrane proximal region, gB773t (residues 31-773) (herpes simplex virus type 1 (HSV-1)) (UniProt P06437); assay: cryo-EM projection images; SEC fraction 22 (run without detergent) embedded in vitreous ice on holey carbon grids
Substance,stoichiometry N [1],stoichiometry N [2],stoichiometry N [3],stoichiometry N [4],stoichiometry N [5],stoichiometry N [6],stoichiometry N [7]
"HSV-1 glycoprotein B ectodomain lacking the membrane proximal region, gB730t (residues 31-730) (from UniProt P06437 31-730) (domain or fragment)",3,3,3,6,3,,
"HSV-1 glycoprotein B full-length ectodomain including the membrane proximal region, gB773t (residues 31-773) (from UniProt P06437 31-773) (domain or fragment)",,,,,,3,3
